# Tested on: Escherichia coli TOP10
# Test: shrunken log2 fold change of peptide-encoding DNA abundance (4.5 h post-induction vs induction); higher = less antimicrobial activity (less host growth inhibition)
# Settings: time post-induction: 4.5 h; library: site-saturation at positions 5, 18, 19, 20
# 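Note: peptides expressed intracellularly from a pBAD plasmid library in pooled LB shake-flask culture, induced with 0.3% L-arabinose, DNA abundance read by NGS, three biological replicates, DESeq2 with apeglm shrinkage.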
row,Sequence,shrunken log2 fold change
1,RRIRPRPPRLPRPRPRPAVMPRP,0.215
2,RRIRRRPPRLPRPRPRPIHSPRP,0.0881
3,RRIRMRPPRLPRPRPRPNSKPRP,-0.129
4,RRIRERPPRLPRPRPRPGEMPRP,-0.0373
5,RRIRHRPPRLPRPRPRPEANPRP,0.00386
6,RRIRQRPPRLPRPRPRPEYSPRP,-0.191
7,RRIRHRPPRLPRPRPRPCFLPRP,-0.0717
8,RRIRIRPPRLPRPRPRPSHRPRP,-0.276
9,RRIRIRPPRLPRPRPRPQLPPRP,-0.0273
10,RRIRLRPPRLPRPRPRPHECPRP,0.0907
11,RRIRWRPPRLPRPRPRPDWQPRP,0.00408
12,RRIRFRPPRLPRPRPRPTSPPRP,0.194
13,RRIRLRPPRLPRPRPRPGPSPRP,0.25
14,RRIRGRPPRLPRPRPRPSGWPRP,1.52
15,RRIRERPPRLPRPRPRPPFCPRP,0.117
16,RRIRERPPRLPRPRPRPTVCPRP,0.141
17,RRIRERPPRLPRPRPRPPTGPRP,0.161
18,RRIRPRPPRLPRPRPRPPFAPRP,0.647
19,RRIRNRPPRLPRPRPRPFRPPRP,-0.215
20,RRIRFRPPRLPRPRPRPWQNPRP,-0.00226
21,RRIRHRPPRLPRPRPRPHSKPRP,-0.32
22,RRIRCRPPRLPRPRPRPVAGPRP,0.0113

row,Sequence,shrunken log2 fold change
1,RRIRWRPPRLPRPRPRPCKMPRP,-0.184
2,RRIRYRPPRLPRPRPRPLLFPRP,-0.614
3,RRIRWRPPRLPRPRPRPIEGPRP,-0.000175
4,RRIRWRPPRLPRPRPRPKTPPRP,0.894
5,RRIRPRPPRLPRPRPRPDHDPRP,-0.306
6,RRIRYRPPRLPRPRPRPGISPRP,-0.0863
7,RRIRTRPPRLPRPRPRPWWEPRP,0.00671
8,RRIRLRPPRLPRPRPRPIQLPRP,-0.235
9,RRIRKRPPRLPRPRPRPKCHPRP,0.182
10,RRIRERPPRLPRPRPRPEFMPRP,-0.096
11,RRIRDRPPRLPRPRPRPRQGPRP,0.0779
12,RRIRMRPPRLPRPRPRPWNKPRP,-0.535
13,RRIRYRPPRLPRPRPRPSCWPRP,-0.349
14,RRIRCRPPRLPRPRPRPGHCPRP,-0.0435
15,RRIRQRPPRLPRPRPRPEDSPRP,-0.0908
16,RRIRPRPPRLPRPRPRPYNIPRP,-1.66
17,RRIRMRPPRLPRPRPRPSHFPRP,-0.274
18,RRIRIRPPRLPRPRPRPQGAPRP,0.0368
19,RRIRIRPPRLPRPRPRPWMFPRP,-0.261
20,RRIRIRPPRLPRPRPRPGRTPRP,0.0928
21,RRIRERPPRLPRPRPRPTFAPRP,-0.0119
22,RRIRPRPPRLPRPRPRPCYVPRP,-0.469

row,Sequence,shrunken log2 fold change
1,RRIRKRPPRLPRPRPRPCGAPRP,0.45
2,RRIRPRPPRLPRPRPRPFFNPRP,-0.365
3,RRIRLRPPRLPRPRPRPNAMPRP,-0.16
4,RRIRERPPRLPRPRPRPDKFPRP,-0.466
5,RRIRDRPPRLPRPRPRPHIIPRP,-1.27
6,RRIRARPPRLPRPRPRPTTTPRP,0.264
7,RRIRWRPPRLPRPRPRPVQGPRP,-0.124
8,RRIRWRPPRLPRPRPRPTYPPRP,-0.553
9,RRIRKRPPRLPRPRPRPFRSPRP,0.0452
10,RRIRCRPPRLPRPRPRPERKPRP,0.086
11,RRIRKRPPRLPRPRPRPVVSPRP,-0.292
12,RRIRKRPPRLPRPRPRPQVFPRP,0.00956
13,RRIRPRPPRLPRPRPRPNIVPRP,-0.342
14,RRIRQRPPRLPRPRPRPYAIPRP,-0.436
15,RRIRARPPRLPRPRPRPLTIPRP,0.0223
16,RRIRMRPPRLPRPRPRPFYVPRP,-0.514
17,RRIRERPPRLPRPRPRPQIKPRP,-0.723
18,RRIRNRPPRLPRPRPRPFAPPRP,-0.0816
19,RRIRIRPPRLPRPRPRPTIAPRP,-0.327
20,RRIRDRPPRLPRPRPRPGACPRP,0.23
21,RRIRFRPPRLPRPRPRPKELPRP,-0.127
22,RRIRWRPPRLPRPRPRPGSEPRP,0.385

row,Sequence,shrunken log2 fold change
1,RRIRRRPPRLPRPRPRPRLGPRP,0.76
2,RRIRQRPPRLPRPRPRPPLHPRP,0.24
3,RRIRNRPPRLPRPRPRPNICPRP,-0.0714
4,RRIRFRPPRLPRPRPRPFWDPRP,-0.374
5,RRIRTRPPRLPRPRPRPEGQPRP,0.0344
6,RRIRDRPPRLPRPRPRPHGFPRP,-0.00776
7,RRIRFRPPRLPRPRPRPLVWPRP,0.0758
8,RRIRERPPRLPRPRPRPSGDPRP,-0.253
9,RRIRTRPPRLPRPRPRPTNVPRP,0.118
10,RRIRERPPRLPRPRPRPWSFPRP,-0.0191
11,RRIRIRPPRLPRPRPRPPDVPRP,-0.109
12,RRIRFRPPRLPRPRPRPMMDPRP,0.0995
13,RRIRIRPPRLPRPRPRPYTFPRP,-2.16
14,RRIRDRPPRLPRPRPRPLKNPRP,0.0245
15,RRIRPRPPRLPRPRPRPGFYPRP,-0.421
16,RRIRERPPRLPRPRPRPAGMPRP,-0.0133
17,RRIRRRPPRLPRPRPRPEQSPRP,0.353
18,RRIRRRPPRLPRPRPRPVIFPRP,0.145
19,RRIRPRPPRLPRPRPRPNYEPRP,-0.442
20,RRIRNRPPRLPRPRPRPGYHPRP,-0.37
21,RRIRYRPPRLPRPRPRPGCRPRP,-0.0618
22,RRIRVRPPRLPRPRPRPTEPPRP,0.128

row,Sequence,shrunken log2 fold change
1,RRIRGRPPRLPRPRPRPWTPPRP,0.75
2,RRIRKRPPRLPRPRPRPEHGPRP,0.0647
3,RRIRRRPPRLPRPRPRPHAAPRP,0.837
4,RRIRNRPPRLPRPRPRPWSLPRP,-0.0288
5,RRIRPRPPRLPRPRPRPNSWPRP,-0.299
6,RRIRIRPPRLPRPRPRPQPRPRP,0.343
7,RRIRERPPRLPRPRPRPLWRPRP,0.0888
8,RRIRTRPPRLPRPRPRPHAHPRP,-0.117
9,RRIRLRPPRLPRPRPRPRHNPRP,-0.521
10,RRIRWRPPRLPRPRPRPMDIPRP,-0.175
11,RRIRPRPPRLPRPRPRPYNRPRP,-0.0087
12,RRIRYRPPRLPRPRPRPLHLPRP,-0.516
13,RRIRVRPPRLPRPRPRPIIWPRP,-0.098
14,RRIRRRPPRLPRPRPRPPKKPRP,1.12
15,RRIRCRPPRLPRPRPRPYIWPRP,-0.0216
16,RRIRRRPPRLPRPRPRPDCFPRP,0.681
17,RRIRDRPPRLPRPRPRPGKAPRP,0.00543
18,RRIRNRPPRLPRPRPRPNETPRP,-0.0424
19,RRIRERPPRLPRPRPRPRPFPRP,-0.0965
20,RRIRDRPPRLPRPRPRPGKYPRP,-0.124
21,RRIRIRPPRLPRPRPRPEMLPRP,-0.119

# From the supplement of paper PMC9112550, “Optimization of the antimicrobial peptide Bac7 by deep mutational scanning” (BMC Biology, 2022)
